Source: PMC12229972 (EJNMMI Radiopharmacy and Chemistry, 2025)

How the values were obtained:
[1] = dynamic PET/CT imaging after cisterna magna infusion; assay type: in vivo, Sprague–Dawley rats; details: rats
[2] = dynamic PET/CT imaging after lumbar infusion; assay type: in vivo, Sprague–Dawley rats; details: rats

Al[^18F]F-7: aluminum [18F]fluoride restrained complexing agent (RESCA) conjugated rat serum albumin (RSA) reference tracer
Cmax (maximum SUV), cervical and thoracic (T1-T2) vertebra (spinal canal) ([1]; geometric mean (CV), listed as 7): 4.5(17%) SUV
tmax, cisterna magna ([1]; median(range)): 20(0) min
Cmax, intracranial space (ICS) [2]: 0.27 %ID
tmax, lumbar vertebra L1-L2 ([2]; median(range)): 25(35) min
